In PMC11166264 (Cell reports, 2021):
Where two headings read alike, the source gives them in different places. No end group written: not given here. *: point of attachment. Biotin = O=C1N[C@H]2[C@H](CS[C@H]2CCCCC(=O)*)N1

T1: HA-dmRanGAP (Drosophila melanogaster, UniProt Q9VIW3 1-596)
T1 sequence (looked up): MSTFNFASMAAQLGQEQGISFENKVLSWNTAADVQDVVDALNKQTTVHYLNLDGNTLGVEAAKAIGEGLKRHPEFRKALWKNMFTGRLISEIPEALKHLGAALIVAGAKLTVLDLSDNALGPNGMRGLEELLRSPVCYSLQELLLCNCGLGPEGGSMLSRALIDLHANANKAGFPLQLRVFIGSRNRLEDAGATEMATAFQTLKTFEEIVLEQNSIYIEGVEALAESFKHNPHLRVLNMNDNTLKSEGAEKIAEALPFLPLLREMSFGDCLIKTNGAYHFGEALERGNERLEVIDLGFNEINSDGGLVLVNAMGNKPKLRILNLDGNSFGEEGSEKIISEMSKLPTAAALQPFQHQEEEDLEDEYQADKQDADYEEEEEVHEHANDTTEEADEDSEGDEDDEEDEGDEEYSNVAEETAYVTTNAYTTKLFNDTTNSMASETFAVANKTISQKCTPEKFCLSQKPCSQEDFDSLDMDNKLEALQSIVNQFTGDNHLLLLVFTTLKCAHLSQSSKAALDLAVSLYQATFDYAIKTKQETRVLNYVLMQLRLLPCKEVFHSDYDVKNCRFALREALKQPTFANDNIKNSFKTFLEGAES


What was measured:
HA-dmRanGAP [1] = target: T1, HA-dmRanGAP; assay: pull-down
HA-dmRanGAP [2] = target: T1, HA-dmRanGAP; assay: pull-down; remark: listed apart in the source

binding result (HA-dmRanGAP [1])	binding result (HA-dmRanGAP [2])	Binder
binds		dmRanBP2B-Frag (aa 2151-2250 of dmRanBP2B isoform) (domain or fragment, Drosophila melanogaster, UniProt A0A0B4K7J2 2151-2250, looked up) KPIEDSPVVGSVSQSTEANKPSQKNDGAAKSRGGESEVLDVGKTSSVRPTTHEVIPPLPMTLPLLTLPQPLAKPNDYQTPATILFKGSSLSRNNSSASEA
	binds	Biotin-VRPTTHEVIPPLPMTLPLLTLPQ [Biotinylated BP2 peptide (aa 2197-2219 of dmRanBP2)]
